This passage reports response of properdin coated on the C3b surface and K1/2 (concentration results from publication PMC4989506.

For assay [1], the target named is C3b (human) (UniProt P01024). Kind of assay: SPR.
The target in assay [2] is recombinant albicin (Anopheles albimanus complement inhibitor) (Anopheles albimanus). Put plainly: SPR.
Sequence of recombinant albicin (Anopheles albimanus complement inhibitor) (Anopheles albimanus) (A0A1Y9G8D0 27-142, tags left off): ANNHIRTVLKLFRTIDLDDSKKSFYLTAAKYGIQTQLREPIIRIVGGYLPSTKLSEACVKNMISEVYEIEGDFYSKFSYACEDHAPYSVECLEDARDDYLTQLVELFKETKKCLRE

Sequence of properdin (P27918 28-469): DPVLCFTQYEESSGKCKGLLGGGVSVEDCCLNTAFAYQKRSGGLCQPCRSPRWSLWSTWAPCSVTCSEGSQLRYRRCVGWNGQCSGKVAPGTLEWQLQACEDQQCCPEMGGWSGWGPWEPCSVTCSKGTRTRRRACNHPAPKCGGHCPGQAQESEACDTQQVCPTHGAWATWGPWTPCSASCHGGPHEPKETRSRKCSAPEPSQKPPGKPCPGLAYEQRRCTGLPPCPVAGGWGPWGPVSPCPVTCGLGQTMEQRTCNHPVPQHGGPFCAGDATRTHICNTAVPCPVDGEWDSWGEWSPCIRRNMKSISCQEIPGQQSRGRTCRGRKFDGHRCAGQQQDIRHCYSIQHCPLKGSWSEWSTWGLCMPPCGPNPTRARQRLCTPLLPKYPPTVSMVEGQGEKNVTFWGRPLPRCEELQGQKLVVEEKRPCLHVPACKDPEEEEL

Substance “properdin (from UniProt P27918 28-469) (natural protein)” yielded a response of properdin coated on the C3b surface in assay [1] of 1200 RU. In addition, the K1/2 (concentration at half-saturation) in assay [2] amounted to 11.6 nM.
